# From patent USRE43568
# Tests used:
# [1] = target: Fcγ receptors on monocytes (FcγRI and RII) (human); experiment: FACS on human monocytes, antibody 10 µg/ml
# [2] = target: human complement C3 (from human pooled serum) (human) (UniProt P01024); experiment: C3 ELISA, antibody coated, human pooled serum added
# [3] = target: Fcγ receptors on granulocytes (FcγRII and RIII) (human); experiment: FACS on human granulocytes, antibody 10 µg/ml
% monocytes binding antibody [1] [%],Bmax (OD405 at 10 µg/ml) [2] [OD405],% granulocytes binding antibody [3] [%],Substance
9.4,–,–,"human IgG4 (CLB, the Netherlands), negative control (antibody)"
–,0.133,–,HuMab 002 Fc variant IgG1v2 (L234A; L235A) (antibody)
14.5,0.104,1.6,HuMab 002 Fc variant IgG4v1 (S228P; L235E) (antibody)
